Assay results from IntAct's records for PubMed 17923090.

Target: stat1_human STAT1 (UniProt P42224)
Sequence (P42224 whole entry): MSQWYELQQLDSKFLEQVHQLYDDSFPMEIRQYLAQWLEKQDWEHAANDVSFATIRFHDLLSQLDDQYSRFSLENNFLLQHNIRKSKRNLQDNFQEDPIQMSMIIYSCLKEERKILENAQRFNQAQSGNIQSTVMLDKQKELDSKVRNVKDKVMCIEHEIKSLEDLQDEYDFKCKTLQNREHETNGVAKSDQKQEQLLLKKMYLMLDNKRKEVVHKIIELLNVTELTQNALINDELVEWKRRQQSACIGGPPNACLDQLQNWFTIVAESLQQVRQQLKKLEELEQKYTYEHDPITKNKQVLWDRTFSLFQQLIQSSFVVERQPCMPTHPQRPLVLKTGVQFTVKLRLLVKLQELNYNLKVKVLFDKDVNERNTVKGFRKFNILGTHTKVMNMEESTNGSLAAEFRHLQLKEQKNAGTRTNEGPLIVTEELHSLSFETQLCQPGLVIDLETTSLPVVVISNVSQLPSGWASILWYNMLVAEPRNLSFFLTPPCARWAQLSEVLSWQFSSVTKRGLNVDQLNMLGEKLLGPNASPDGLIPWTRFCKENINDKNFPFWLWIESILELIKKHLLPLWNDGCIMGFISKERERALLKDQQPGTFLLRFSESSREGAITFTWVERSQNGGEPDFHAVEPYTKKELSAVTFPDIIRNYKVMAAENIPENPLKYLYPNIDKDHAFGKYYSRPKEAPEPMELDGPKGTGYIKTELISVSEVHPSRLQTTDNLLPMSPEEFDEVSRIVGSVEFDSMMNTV

Row | effect of a mutation on the interaction | Substance
1 | decreasing interaction | Signal transducer and activator of transcription 2 (Homo sapiens), P52630 K384R
2 | increasing interaction | Signal transducer and activator of transcription 2 (Homo sapiens), P52630 K390R
3 | increasing interaction | Signal transducer and activator of transcription 2 (Homo sapiens), P52630 K415R
4 | decreasing interaction | Signal transducer and activator of transcription 2 (Homo sapiens), P52630 K419R
